Measurements from patent US20220340673A1 (HARBOUR BIOMED SUZHOU, published 2022).

Tests used:
[1] = target: T1, human BCMA on cells (HEK293T/huBCMA; NCI-H929) (human, UniProt Q02223 1-184); experiment: FACS on NCI-H929 cell line [B]
T1 construct: whole, on cells; also called human BCMA molecules on NCI-H929 cell line
T1 sequence (looked up): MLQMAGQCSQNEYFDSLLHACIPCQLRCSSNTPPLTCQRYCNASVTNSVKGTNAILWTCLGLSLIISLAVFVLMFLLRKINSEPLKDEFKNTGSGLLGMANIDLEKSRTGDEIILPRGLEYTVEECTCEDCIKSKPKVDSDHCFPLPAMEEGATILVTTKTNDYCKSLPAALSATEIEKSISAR
Protocol: To study the binding activity of the BCMA arm of the BCMA×CD3 bispecific antibody to human BCMA, NCI-H929 cell line with highly expressed BCMA was used for binding experiments with human BCMA at cellular level. Briefly, NCI-H929 cell suspensions were collected. The cell density was adjusted to 1×10⁶ cells/mL, and the cells were inoculated in 96 well V-bottom plates at 100 μL cells/well (Corning, Cat#: 3894), followed by the addition of test antibodies at 100 μL/well, which is gradient diluted at 3 folds of the concentration with 2 folds of the final concentration. Cells were incubated at 4° C. for 2 hours in the dark. Afterwards, cells were washed twice with 100 μL/well of pre-cooled PBS, centrifuged at 500 g for 5 min at 4° C., and followed by discarding the supernatant. 100 μL/well of fluorescent secondary antibody (Alexa Fluor 488-conjugated AffiniPure Goat Anti-Human IgG, Fcγ Fragment Specific, Jackson, Cat#:109-545-06, 1:500 dilution) was added and incubated at 4° C. for 1 hour in the dark. Cells were washed twice with 100 μL/well of pre-cooled PBS, centrifuged at 500 g, 4° C. for 5 min, and followed by discarding the supernatant. Finally, the cells were resuspended with 200 μL/well of pre-cooled PBS, and the fluorescence luminescence signal values were read by BD FACS CANTOII.

[2] = target: T2, human BCMA-Fc, Avitag recombinant protein (ACRO, Cat. BC7-H82F0) (human, UniProt Q02223 1-54); experiment: SPR (Biacore T200), antigen amine-coupled on CM5, antibody as analyte, 1:1 fit
T2 construct: extracellular domain; Bought reagent; amine-coupled to the CM5 chip in the Biacore assay; also called recombinant human BCMA-ECD-Fc; human BCMA recombinant protein; not shown: Fc and Avitag of the bought protein
T2 sequence (looked up): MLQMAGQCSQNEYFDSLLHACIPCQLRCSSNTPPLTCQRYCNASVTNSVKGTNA
Protocol: (§1) The flow rate was set as 10 μl/min and four antigens were coupled on four channels on two CMS: 1) the injection time was set as 300 s, and 50 mM of NHS and 200 mM of EDC were freshly mixed at 1:1 volume ratio and injected into four channels; 2) human BCMA-Fc, Avitag recombinant protein, cynomolgus monkey BCMA-FC, Avitag, human CD3e/g ECD-hFc recombinant protein and cynomolgus CD3e/g ECD-hFc recombinant protein were all diluted to 1 μg/ml with sodium acetate (Cat# BR-1003-50) (pH 4.5), and injected into channel 2, 3 and 4 of chip 1 and channel 2 of chip 2, respectively; 3) 1 M of ethanolamine (pH8.5) was injected for 300 s to block the remaining active carboxyl groups on the chips surface. After blockage, the instrument was continued to be equilibrated with 1 ×HBS- EP+buffer for two hours. The final coupling amounts of human BCMA-Fc, Avitag recombinant protein, cynomolgus monkey BCMA-Fc, Avitag, human CD3e/g ECD-hFc recombinant protein and cynomolgus monkey CD3e/g ECD-hFc recombinant protein were 120 RU, 70 RU, 200 RU and 290 RU, respectively.
(§2) A multi-cycle kinetic mode was set, and each cycle included the binding of PRO03178 as well as the regeneration of the chip. […]
(§3) The experimental results were analyzed by using Biacore T200 analysis software, and channel 1 was deducted as reference channel, and a 1:1 kinetic fit model was selected as the analysis model.

[3] = target: T3, human CD3e/g ECD-hFc recombinant protein (human, UniProt P07766 23-126; P09693 23-116); experiment: as above
T3 construct: extracellular domain; Bought from ChemPartner; not shown: human Fc
Protocol: as §1, §2, §3

[4] = target: T4, cynomolgus monkey BCMA-Fc, Avitag (ACRO, Cat. BCA-C82F4) (cynomolgus monkey, UniProt A0A2K5UD97 1-53); experiment: Biacore, antigen coupled to a CM5 chip, PR003178 injected at 6-0.1875 nM, 1:1 kinetic fit [E]
T4 construct: Bought reagent; amine-coupled to the CM5 chip; also called cynomolgus monkey BCMA recombinant protein; not shown: Fc and Avitag of the bought protein
Protocol: Human BCMA-Fc, Avitag recombinant protein (ACRO, Cat. BC7-H82F0), cynomolgus monkey BCMA-Fc, Avitag (ACRO, Cat. BCA-C82F4) were purchased from ACRO, human CD3e/g ECD-hFc recombinant protein (Lot.20190508002), cynomolgus monkey CD3e/g ECD-hFc recombinant protein and human (Lot.2018040001) were purchased from ChemPartner.
as §1
A multi-cycle kinetic mode was set, and each cycle included the binding of PRO03178 as well as the regeneration of the chip. PRO03178 with two-fold gradient dilution was injected into four channels at a flow rate of 30 μl/min. A binding time of 180 s and a dissociation time of 400 s or 600s were set. Finally, 10 mM of glycine-hydrochloric acid (pH 1.5) (GE Life Sciences, Cat# BR-1003-54) was injected at the same flow rate for 60 s to regenerate the chip.

T4 sequence (A0A2K5UD97 entry or part of it): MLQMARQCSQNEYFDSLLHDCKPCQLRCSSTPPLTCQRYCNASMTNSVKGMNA
T3 sequence (P07766 23-126, chain 1 of 2): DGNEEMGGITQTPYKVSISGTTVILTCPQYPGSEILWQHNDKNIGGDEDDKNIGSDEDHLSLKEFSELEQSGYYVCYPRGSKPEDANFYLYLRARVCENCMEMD
T3 sequence (P09693 23-116, chain 2 of 2): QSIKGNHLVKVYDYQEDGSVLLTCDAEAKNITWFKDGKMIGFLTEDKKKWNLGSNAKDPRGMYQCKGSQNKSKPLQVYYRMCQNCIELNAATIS

B1: BCMA x CD3 bispecific antibody PR003178 (bispecific antibody, human IgG1, lambda, L234A L235A)
heavy 1: not shown
light: QAVVTQEPSLTVSPGGTVTLTCRSSTGAVTTSNYANWVQQKPGQAPRGLIGGTNKRAPWTPARFSGSLLGDKAALTLLGAQPEDEAEYFCALWYSNLWVFGGGTKLTVLGQPKAAPSVTLFPPSSEELQANKATLVCLISDFYPGAVTVAWKADSSPVKAGVETTTPSKQSNNKYAASSYLSLTPEQWKSHRSYSCQVTHEGSTVEKTVAPTECS
heavy 2: EVQLVETGGGLIQPGGSLRLSCAASGFTVSDNYMTWVRQAPGKGLEWVSVIFSGGNTYYADSVKGRFTISRDNAKNTLYLQMNSLRAEDTALYYCARRNYDDTRGTDVFDIWGQGTMVTVSSGGGGSGGGGSGGGGSEVQLVETGGGLIQPGGSLRLSCAASGFTVSDNYMTWVRQAPGKGLEWVSVIFSGGNTYYADSVKGRFTISRDNAKNTLYLQMNSLRAEDTALYYCARRNYDDTRGTDVFDIWGQGTMVTVSSASEPKSSDKTHTCPPCPAPEAAGGPSVFLFPPKPKDTLMISRTPEVTCVVVDVSHEDPEVKFNWYVDGVEVHNAKTKPREEQYNSTYRVVSVLTVLHQDWLNGKEYKCKVSNKALPAPIEKTISKAKGQPREPQVCTLPPSREEMTKNQVSLSCAVKGFYPSDIAVEWESNGQPENNYKTTPPVLDSDGSFFLVSKLTVDKSRWQQGNVFSCSVMHEALHNHYTQKSLSLSPGK
notes: Three chains: HC1 (anti-CD3 heavy, knob, LALA), LC (anti-CD3 lambda light), HC2 (two tandem anti-BCMA VH of PR001046 joined by (G4S)3, then Fc hole, LALA); also called PRO03178
EC50 [1]: 1100 pM
Kd [2]: ~94.9 pM
Kd [3]: ~25400 pM
Kd [4]: 147 pM
koff [4]: 0.000285 s⁻¹
kon [4]: 1.94e+06 M⁻¹ s⁻¹
